# Square brackets hold non-standard residues; d marks the D form. Primed or numbered codes have the meaning given here. Ends that are not written are not given here. Pra = C#CC[C@H](N)C(=O)O; PEG4′ = PEG4 spacer
# Target: human Factor IXa (human, UniProt P00740 47-191; P00740 227-461)
# Assay: cell-based or functional assay
Binder,"EC50 [µM], FXa generation assay [µM]","EC50 [µM], FXa generation assay with hFIXa [µM]"
GYRVPVGGLVRRAHGKLTCLASYCWLFWTGIA [GYRVPVGGLV RRAHG KLTCLASYCWLFWTGIA],> 1,
TQWAQVGPRGRRAQGKLTCLASYCWLFWTGIA [TQWAQVGPRG RRAQG KLTCLASYCWLFWTGIA],< 0.5,
VGSGDERALPSRASGKLTCLASYCWLFWTGIA [VGSGDERALP SRASG KLTCLASYCWLFWTGIA],< 0.5,
WSLCFKLTCAYL-NH2 (cysteine pairing not given here) [compound A],,> 100
TLWPWGGQGGRNAPGKLTCLASYCWLFWTGIA [TLWPWGGQGG RNAPG KLTCLASYCWLFWTGIA],> 1,
TGLLQGRRDERARPPKLTCLASYCWLFWTGIA [TGLLQGRRDE RARPP KLTCLASYCWLFWTGIA],< 0.5,
RRAPGKLTCLASYCWLFSTGVATHANTTATAQ [RRAPGKLTCLASYCWLF STGVA THANTTATAQ],> 1,
RRAPGKLTCLASYCWLFWTGYASGKPSRVYVI [RRAPGKLTCLASYCWLF WTGYA SGKPSRVYVI],> 1,
RRAPGKLTCLASYCWLFWTGLSRYQWQAQEDV [RRAPGKLTCLASYCWLF WTGLS RYQWQAQEDV],> 1,
RRAPGKLTCLASYCWLFWTGWAVLARVPVGWT [RRAPGKLTCLASYCWLF WTGWA VLARVPVGWT],< 0.5,
RRAPGKLTCLASYCWLFWTGFAFRVGLASSLY [RRAPGKLTCLASYCWLF WTGFA FRVGLASSLY],< 0.5,
RRAPGKLQCLASYCWLFWTGIA-NH2 (not fully specified (bridges); cysteine pairing not given here) [compound 3],,< 0.5
RRAPGKLTCLASYCWLFWTGLASTLYKTYTRE [RRAPGKLTCLASYCWLF WTGLA STLYKTYTRE],> 1,
RRAPGKLTCLASYCWLFQTGWAYWGYRQHPGS [RRAPGKLTCLASYCWLF QTGWA YWGYRQHPGS],< 0.5,
RRAPGKLTCLASYCWLFWTGWCRDTASHACDS [RRAPGKLTCLASYCWLF WTGWC RDTASHACDS],> 1,
RRAPGKLTCLASYCWLFWRGFAERASEDTNQG [RRAPGKLTCLASYCWLF WRGFA ERASEDTNQG],> 1,
RRAPGKLTCLASYCWLFEPGIAQPYAKSPTRN [RRAPGKLTCLASYCWLF EPGIA QPYAKSPTRN],> 1,
RRAPGKLTCLASYCWLFSTPVARKSLRRHQPT (not fully specified (C-terminus); cysteine pairing not given here) [RRAPGKLTCLASYCWLF STPVA RKSLRRHQPT],> 10,
SRIRTVGPGSRSASGKLTCLASYCWLFWTGIA,< 0.5,
PSIRTVGPGSRSASGKLTCLASYCWLFWTGIA (not fully specified; cysteine pairing not given here),< 0.5,
PRSRTVGPGSRSASGKLTCLASYCWLFWTGIA,< 0.5,
PRISTVGPGSRSASGKLTCLASYCWLFWTGIA,< 0.5,
PRIRSVGPGSRSASGKLTCLASYCWLFWTGIA,< 0.5,
PRIRTSGPGSRSASGKLTCLASYCWLFWTGIA,< 0.5,
PRIRTVSPGSRSASGKLTCLASYCWLFWTGIA,< 0.5,
PRIRTVGSGSRSASGKLTCLASYCWLFWTGIA,< 0.5,
PRIRTVGPSSRSASGKLTCLASYCWLFWTGIA,< 0.5,
PRIRTVGPGSRSASGKSTCLASYCWLFWTGIA,< 0.5,

Binder,"EC50 [µM], FXa generation assay [µM]","EC50 [µM], FXa generation assay with hFIXa [µM]"
"PRIRTVGPGSRSASGKSTCLASYCWLFWTGIAX (not fully specified; D-Arg 4, D-Arg 11, C-terminal PEG4-Pra) [PRIrTVGPGSrSASGKSTCLASYCWLFWTGIA-PEG4-Pra]",< 0.5,
[Pra][PEG4′]PRI[dR]TVGPGS[dR]SASGKSTCLASYCWLFWTGIA (not fully specified (C-terminus); printed as Pra-PEG4-PRIrTVGPGSrSASGKSTCLASYCWLFWTGIA; cysteine pairing not given here) [Pra-PEG4-PRIrTVGPGSrSASGKSTCLASYCWLFWTGIA],> 1,
SRIRTVGPGSRSASGKSTCLASYCWLFWTGIA,< 0.5,
PRIRTVSPGSRSASGKSTCLASYCWLFWTGIA,< 0.5,
SRIRTVSPGSRSASGKSTCLASYCWLFWTGIA,< 0.5,
PRSRTVGPGSRSASGKSTCLASYCWLFWTGIA,< 0.5,
SRSRTVSPGSRSASGKSTCLASYCWLFWTGIA,< 0.5,
PRIRTVGPGSRSASGKLTCLASYCWLAWTGIA,> 1,
PRIRTVGPGSRSASGKLTCLASYCWLLWTGIA,< 0.5,
PRIRTVGPGSRSASGKLTCLASYCWLFATGIA,< 0.5,
PRIRTVGPGSRSASGKLTCLASYCWLFFTGIA,< 0.5,
PRIRTVGPGSRSASGKLTCLASYCWLFLTGIA,< 0.5,
PRIRTVGPGSRSASGKLTCLASYCWLFWSGIA,< 0.5,
PRIRTVGPGSRSASGKLTCLASYCWLFWTLIA,< 0.5,
PRIRTVGPGSRSASGKLTCLASYCWLFWTFIA,< 0.5,
PRIRTVGPGSRSASGKLTCLASYCWLFWTSIA,< 0.5,
PRIRTVGPGSRSASGKLTCLASYCWLFWTGI,< 0.5,
SRI[dR]TVSPGS[dR]SASGKSTCLASYCWLFWTGIA (not fully specified; printed as SRIrTVSPGSrSASGKSTCLASYCWLFWTGIA; cysteine pairing not given here) [SRIrTVSPGSrSASGKSTCLASYCWLFWTGIA],> 1,
PRIRTVGPGSRRASGKLTCLASYCWLFWTGIA,< 0.5,
PRIRTVGPGSRSASGKLSCLASYCWLFWTGIA,< 0.5,
PRIRTVGPGSRSASGKLTCAASYCWLFWTGIA,> 1,
PRIRTVGPGSRSASGKLTCSASYCWLFWTGIA,> 1,
PRIRTVGPGSRSASGKLTCVASYCWLFWTGIA,> 1,
PRIRTVGPGSRSASGKLTCFASYCWLFWTGIA,> 1,
PRIRTVGPGSRSASGKLTCLASACWLFWTGIA,> 1,
PTDTGPVISGLRAPGKLTCLASYCWLFWTGIA [PTDTGPVISG LRAPG KLTCLASYCWLFWTGIA],< 0.5,
GSVRRALFVAARAPAKLTCLASYCWLFWTGIA [GSVRRALFVA ARAPA KLTCLASYCWLFWTGIA],< 0.5,

# Source: US20140303084A1 (Biogen, published 2014)
